Measurements from patent publication US20130196933A1.

Columns and labels:
[1] = target: T7-FoxM1B WT protein (CMV T7-FoxM1B; CMV WT FoxM1B 1-748) (human) (UniProt Q08050); assay: cell-based or functional assay
Cdk1 protein (human) = Cdk1 protein (human) (UniProt P06493); assay: cell-based or functional assay
Chain of Cdk1 protein (human) (P06493 whole entry): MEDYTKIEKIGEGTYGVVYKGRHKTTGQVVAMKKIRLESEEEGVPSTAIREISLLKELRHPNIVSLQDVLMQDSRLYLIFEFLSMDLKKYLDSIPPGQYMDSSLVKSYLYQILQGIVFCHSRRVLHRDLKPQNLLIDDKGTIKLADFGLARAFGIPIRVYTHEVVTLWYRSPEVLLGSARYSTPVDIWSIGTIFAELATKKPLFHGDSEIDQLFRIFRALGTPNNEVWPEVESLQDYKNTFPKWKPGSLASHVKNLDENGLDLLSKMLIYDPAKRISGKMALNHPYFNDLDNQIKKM

| FoxM1B transcriptional activity (6×FoxM1B TATA-luciferase reporter, U2OS cells) (% stimulation) [1] | FoxM1B transcriptional activity (6×FoxM1B TATA-luciferase reporter, U2OS cells) (Cdk1 protein (human)) [% reduction] | Substance |
| --- | --- | --- |
| 50 | – | CBP protein (CREB Binding Protein, CMV-CBP) (enzyme) |
| – | 80 | T7-FoxM1B L641A mutant protein (from UniProt Q08050 1-763) |
